Assay results taken from the supplement of paper PMC11246515.
± gives the standard deviation of the averaged measurements.

Experiment: total protein half-life in vivo (active degradation + dilution); higher = more stable protein
[1] = E. coli NCM3722 delta-clpP delta-lon delta-hslV, growth: N-lim chemostat, doubling time 6 h
[2] = E. coli NCM3722 delta-clpP, growth: N-lim chemostat, doubling time 6 h
[3] = E. coli NCM3722 delta-hslV, growth: N-lim chemostat, doubling time 6 h
[4] = E. coli NCM3722 delta-lon, growth: N-lim chemostat, doubling time 6 h
[5] = E. coli NCM3722 delta-smpB, growth: N-lim chemostat, doubling time 6 h
[6] = wild type E. coli NCM3722, growth: C-lim chemostat, doubling time 3 h
[7] = wild type E. coli NCM3722, growth: C-lim chemostat, doubling time 6 h
[8] = wild type E. coli NCM3722, growth: C-lim chemostat, doubling time 12 h
[9] = wild type E. coli NCM3722, growth: N-lim chemostat, doubling time 6 h
[10] = wild type E. coli NCM3722, growth: N-lim chemostat, doubling time 12 h
[11] = wild type E. coli NCM3722, growth: P-lim chemostat, doubling time 6 h
[12] = wild type E. coli NCM3722, growth: P-lim chemostat, doubling time 12 h

Row | Sequence | total protein half-life in vivo [1] | total protein half-life in vivo [2] | total protein half-life in vivo [3] | total protein half-life in vivo [4] | total protein half-life in vivo [5] | total protein half-life in vivo [6] | total protein half-life in vivo [7] | total protein half-life in vivo [8] | total protein half-life in vivo [9] | total protein half-life in vivo [10] | total protein half-life in vivo [11] | total protein half-life in vivo [12]
1 | MKHLHRFFSSDASGGIILIIAAILAMIMANSGATSGWYHDFLETPVQLRVGSLEINKNMLLWINDALMAVFFLLVGLEVKRELMQGSLASLRQAAFPVIAAIGGMIVPALLYLAFNYADPITREGWAIPAATDIAFALGVLALLGSRVPLALKIFLMALAIIDDLGAIIIIALFYTNDLSMASLGVAAVAIAVLAVLNLCGARRTGVYILVGVVLWTAVLKSGVHATLAGVIVGFFIPLKEKHGRSPAKRLEHVLHPWVAYLILPLFAFANAGVSLQGVTLDGLTSILPLGIIAGLLIGKPLGISLFCWLALRLKLAHLPEGTTYQQIMVVGILCGIGFTMSIFIASLAFGSVDPELINWAKLGILVGSISSAVIGYSWLRVRLRPSV | 6.65 h | 6.24 ± 0.42 h | 5.55 ± 0.066 h | 5.75 ± 0.5 h | 6.42 ± 0.43 h | 3.69 h | 5.22 ± 1.9 h | 12 h | 5.7 ± 0.59 h | 11.7 ± 0.19 h | 5.867 ± 0.035 h | 10.6 ± 2 h
2 | MFKSFFPKPGTFFLSAFVWALIAVIFWQAGGGDWVARITGASGQIPISAARFWSLDFLIFYAYYIVCVGLFALFWFIYSPHRWQYWSILGTALIIFVTWFLVEVGVAVNAWYAPFYDLIQTALSSPHKVTIEQFYREVGVFLGIALIAVVISVLNNFFVSHYVFRWRTAMNEYYMANWQQLRHIEGAAQRVQEDTMRFASTLENMGVSFINAIMTLIAFLPVLVTLSAHVPELPIIGHIPYGLVIAAIVWSLMGTGLLAVVGIKLPGLEFKNQRVEAAYRKELVYGEDDATRATPPTVRELFSAVRKNYFRLYFHYMYFNIARILYLQVDNVFGLFLLFPSIVAGTITLGLMTQITNVFGQVRGAFQYLINSWTTLVELMSIYKRLRSFEHELDGDKIQEVTHTLS [P0AFY6] | 5.51 ± 0.24 h | 5.35 ± 0.061 h | 5.4 ± 0.62 h | 5.41 ± 0.43 h | 5.52 ± 0.15 h | – | 4.97 ± 1.2 h | 11.3 ± 1.3 h | – | 8.73 ± 0.38 h | 5.77 ± 0.34 h | –
3 | MNKAIKVSLYISFVLIICALSKNIMMLNTSDFGRAIKPLIEDIPAFTYDLPLLYKLKGHIDSIDSYEYISSYSYILYTYVLFISIFTEYLDARVLSLFLKVIYIYSLYAIFTSYIKTERYVTLFTFFILAFLMCSSSTLSMFASFYQEQIVIIFLPFLVYSLTCKNNKSMLLLFFSLLIISTAKNQFILTPLIVYSYYIFFDRHKLIIKSVICVVCLLASIFAISYSKGVVELNKYHATYFGSYLYMKNNGYKMPSYVDDKCVGLDAWGNKFDISFGATPTEVGTECFESHKDETFSNALFLLVSKPSTIFKLPFDDGVMSQYKENYFHVYKKLHVIYGESNILTTITNIKDNIFKNIRFISLLLFFIASIFIRNNKIKASLFVVSLFGISQFYVSFFGEGYRDLSKHLFGMYFSFDLCLYITVVFLIYKIIQRNQDNSDVKH | 5.64 h | 6.29 ± 1.9 h | 5.24 ± 0.26 h | 4.87 ± 0.47 h | 4.88 ± 0.4 h | – | 6.387 ± 0.036 h | 12 h | 5.59 ± 0.57 h | 9.92 ± 2.3 h | 5.62 ± 0.53 h | 10.2 ± 1.1 h
4 | MRSFSQLWPTLKRLLAYGSPWRKPLGIAVLMMWVAAAAEVSGPLLISYFIDNMVAKNNLPLKVVAGLAAAYVGLQLFAAGLHYAQSLLFNRAAVGVVQQLRTDVMDAALRQPLSEFDTQPVGQVISRVTNDTEVIRDLYVTVVATVLRSAALVGAMLVAMFSLDWRMALVAIMIFPVVLVVMVIYQRYSTPIVRRVRAYLADINDGFNEIINGMSVIQQFRQQARFGERMGEASRSHYMARMQTLRLDGFLLRPLLSLFSSLILCGLLMLFGFSASGTIEVGVLYAFISYLGRLNEPLIELTTQQAMLQQAVVAGERVFELMDGPRQQYGNDDRPLQSGTIEVDNVSFAYRDDNLVLKNINLSVPSRNFVALVGHTGSGKSTLASLLMGYYPLTEGEIRLDGRPLSSLSHSALRQGVAMVQQDPVVLADTFLANVTLGRDISEERVWQALETVQLAELARSMSDGIYTPLGEQGNNLSVGQKQLLALARVLVETPQILILDEATASIDSGTEQAIQHALAAVREHTTLVVIAHRLSTIVDADTILVLHRGQAVEQGTHQQLLAAQGRYWQMYQLQLAGEELAASVREEESLSA [P0AAG5] | 6.44 ± 0.43 h | 6 ± 0.12 h | 4.33 ± 0.16 h | 3.97 ± 0.13 h | 4.31 ± 0.43 h | 2.85 h | 4.47 ± 0.42 h | 8.8 ± 2.3 h | 4.589 ± 0.038 h | 6.71 ± 0.085 h | 5.09 ± 0.38 h | 10.3 ± 0.7 h
5 | MKSNRQARHILGLDHKISNQRKIVTEGDKSSVVNNPTGRKRPAEK | 1.25 ± 0.066 h | 0.873 h | 1.04 ± 0.075 h | 1.37 ± 0.39 h | 0.657 h | 1.64 ± 0.16 h | 1.85 h | 1.81 ± 0.55 h | 1.08 h | 1.74 ± 0.51 h | 0.899 ± 0.2 h | 1.34 ± 0.98 h
6 | MKPARVPQTVVAPDCWGDLPWGKLYRKALERQLNPWFTKMYGFHLLKIGNLSAEINCEACAVSHQVNVSAQGMPVQVQADPLHLPFADKSVDVCLLAHTLPWCTDPHRLLREADRVLIDDGWLVISGFNPISFMGLRKLVPVLRKTSPYNSRMFTLMRQLDWLSLLNFEVLHASRFHVLPWNKHGGKLLNAHIPALGCLQLIVARKRTIPLTLNPMKQSKNKPRIRQAVGATRQCRKPQA | 5.49 ± 0.13 h | – | 5.49 ± 0.6 h | 5.76 ± 1 h | 7.25 ± 1 h | 1.91 ± 0.15 h | 4.59 ± 1.2 h | 11.5 h | 6.41 h | 9.9 ± 3.1 h | 5.31 ± 1.1 h | 10.6 ± 2.4 h
7 | MVAVRSAHINKAGEFDPEKWIASLGITSQKSCECLAETWAYCLQQTQGHPDASLLLWRGVEMVEILSTLSMDIDTLRAALLFPLADANVVSEDVLRESVGKSVVNLIHGVRDMAAIRQLKATHTDSVSSEQVDNVRRMLLAMVDDFRCVVIKLAERIAHLREVKDAPEDERVLAAKECTNIYAPLANRLGIGQLKWELEDYCFRYLHPTEYKRIAKLLHERRLDREHYIEEFVGHLRAEMKAEGVKAEVYGRPKHIYSIWRKMQKKNLAFDELFDVRAVRIVAERLQDCYAALGIVHTHYRHLPDEFDDYVANPKPNGYQSIHTVVLGPGGKTVEIQIRTKQMHEDAELGVAAHWKYKEGAAAGGARSGHEDRIAWLRKLIAWQEEMADSGEMLDEVRSQVFDDRVYVFTPKGDVVDLPAGSTPLDFAYHIHSDVGHRCIGAKIGGRIVPFTYQLQMGDQIEIITQKQPNPSRDWLNPNLGYVTTSRGRSKIHAWFRKQDRDKNILAGRQILDDELEHLGISLKEAEKHLLPRYNFNDVDELLAAIGGGDIRLNQMVNFLQSQFNKPSAEEQDAAALKQLQQKSYTPQNRSKDNGRVVVEGVGNLMHHIARCCQPIPGDEIVGFITQGRGISVHRADCEQLAELRSHAPERIVDAVWGESYSAGYSLVVRVVANDRSGLLRDITTILANEKVNVLGVASRSDTKQQLATIDMTIEIYNLQVLGRVLGKLNQVPDVIDARRLHGS [P0AG20] | 5.7 ± 0.41 h | 5.46 ± 0.31 h | 4.65 ± 0.24 h | 4.99 ± 0.054 h | 4.36 ± 0.23 h | 2.68 ± 0.21 h | 4.87 ± 0.11 h | 8.04 ± 0.43 h | 4.74 ± 0.17 h | 7.78 ± 0.22 h | 4.8 ± 0.23 h | 9.13 ± 0.26 h
8 | MSMSTSTEVIAHHWAFAIFLIVAIGLCCLMLVGGWFLGGRARARSKNVPFESGIDSVGSARLRLSAKFYLVAMFFVIFDVEALYLFAWSTSIRESGWVGFVEAAIFIFVLLAGLVYLVRIGALDWTPARSRRERMNPETNSIANRQR [P0AFC3] | 7.01 ± 0.28 h | – | 6.15 ± 1.1 h | – | 6.317 ± 0.023 h | 3.72 ± 0.32 h | – | 13 ± 0.5 h | 6.22 ± 0.18 h | – | 6.293 ± 0.024 h | 14.3 ± 2.1 h
